These results are taken from patent US20250268984A1, “INTERFERON-BASED CANCER TREATMENT METHOD, AND PHARMACEUTICAL COMBINATION” (XIAMEN AMOYTOP BIOTECH CO., LTD., priority 2021, published 2025).

This assay deals with transplanted liver cancer H22. Kind of assay: Example 13: different administration orders of interferon and gemcitabine, transplanted liver cancer H22 in mice. It counts as in vivo, BALB/c mice. To be noted: PEG-mIFN-α4 only, 1 microgram per mouse s.c. once a week. As for the experimental part:
PEG-mIFN-α4 was administered by subcutaneous injection on the back of the neck, with a dose of 1 microgram per mouse. The administration began on the day after grouping. In the PEG-mIFN-α4 only group, PEG-mIFN-α4 was administered once a week. In the PEG-mIFN-α4 combined with gemcitabine (administered at the same time) group, PEG-mIFN-α4 and gemcitabine were administered on the same day, once a week. In the PEG-mIFN-α4 combined with gemcitabine (PEG-mIFN-α4 was administered 72 hours after gemcitabine) group, gemcitabine was given 3 days before PEG-mIFN-α4, once a week. PEG-mIFN-α4 combined with gemcitabine (gemcitabine was given 72 hours after PEG-mIFN-α4) group, PEG-mIFN-α4 was given first, and gemcitabine was given 3 days after, once a week. In the normal saline control group, an equal volume of normal saline was given. Gemcitabine was injected intraperitoneally at a dose of 60 mg/kg.
SAS 9.4 software was used to compare the differences in tumor incidence between groups, and the statistical tests were all two-sided tests.
The tumor incidence of each group was calculated based on the tumor volume greater than or equal to 62.5 mm^, which is determined as positive for tumor occurrence. […] Mice determined to be negative for tumor development were confirmed by dissection, and no solid tumor was found in the axilla. […]

B1: PEG-mIFN-α4: deglycosylated recombinant mouse interferon α4 modified with 40 kD Y-type polyethylene glycol succinimide ester (YPEG-NHS); SEQ ID NO: 6 (protein)
chain: CDLPHTYNLGNKRALTVLEEMRRLPPLSCLKDRKDFGFPLEKVDNQQIQKAQAILVLRDLTQQILNLFTSKDLSATWNATLLDSFCNDLHQQLNDLKACVMQEPPLTQEDSLLAVRTYFHRITVYLRKKKHSLCAWEVIRAEVWRALSSSTNLLARLSEEKE
modifications: 40 kD Y-type PEG; deglycosylated; peginterferon murine alpha 4
On to B1, for which the “Median survival period (time after tumor inoculation, day)” value (by day 151) worked out at 38.0 days. The tumor incidence (day 151 after tumor inoculation, tumor volume ≥62.5 positive) is 100.0%.
